According to US10500249B2, “Compositions and methods for preventing or treating diseases, conditions, or processes characterized by aberrant fibroblast proliferation and extracellular matrix deposition” (MOERAE MATRIX, INC., priority 2014, dated 2019):

Legend:
Experiment in all cases: Kinase Profiling Assay
Type in all cases: biochemical
Settings in all cases: 100 μM
[1] = molecular target: T1, PKD2 (h) (Homo sapiens, UniProt Q9BZL6)
T1 sequence (Q9BZL6 1-878): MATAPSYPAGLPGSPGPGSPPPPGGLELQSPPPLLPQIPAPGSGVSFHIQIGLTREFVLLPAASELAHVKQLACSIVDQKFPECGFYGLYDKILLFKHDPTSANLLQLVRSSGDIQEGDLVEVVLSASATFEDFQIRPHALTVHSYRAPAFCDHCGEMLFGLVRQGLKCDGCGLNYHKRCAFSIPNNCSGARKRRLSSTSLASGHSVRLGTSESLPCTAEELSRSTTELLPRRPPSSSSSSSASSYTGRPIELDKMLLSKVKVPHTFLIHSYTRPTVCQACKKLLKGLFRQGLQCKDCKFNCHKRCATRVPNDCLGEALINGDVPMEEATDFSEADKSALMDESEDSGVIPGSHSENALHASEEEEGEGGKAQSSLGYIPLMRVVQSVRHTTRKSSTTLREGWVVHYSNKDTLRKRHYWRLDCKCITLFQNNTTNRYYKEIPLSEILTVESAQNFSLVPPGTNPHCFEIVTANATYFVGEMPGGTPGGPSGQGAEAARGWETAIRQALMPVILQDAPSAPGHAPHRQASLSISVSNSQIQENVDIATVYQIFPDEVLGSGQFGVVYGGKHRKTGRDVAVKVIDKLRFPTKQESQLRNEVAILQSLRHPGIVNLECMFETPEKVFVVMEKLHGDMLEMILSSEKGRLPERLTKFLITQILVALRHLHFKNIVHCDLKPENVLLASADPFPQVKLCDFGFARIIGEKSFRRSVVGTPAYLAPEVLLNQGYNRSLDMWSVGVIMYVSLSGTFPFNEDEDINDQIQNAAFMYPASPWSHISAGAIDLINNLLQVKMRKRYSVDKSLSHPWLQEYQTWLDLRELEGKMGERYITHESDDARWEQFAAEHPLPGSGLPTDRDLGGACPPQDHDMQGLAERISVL
In short: (§1)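 Scintillation counting quantifies radiolabeled, positively charged substrate retained on a negatively charged filter after kinase reaction with labeled ATP; inhibitor peptide present.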

[2] = molecular target: Ret (V804L) (h) (Homo sapiens, UniProt P07949, V804L)
In short: as §1

[3] = molecular target: T2, MSK2 (h) (Homo sapiens, UniProt O75676)
T2 construct: purchased Millipore
In short: as §1

[4] = molecular target: T3, Pim-3 (h) (Homo sapiens, UniProt Q86V86)
T3 construct: purchased Millipore
In short: as §1

[5] = molecular target: T4, Hck (h) activated (Homo sapiens, UniProt P08631)
T4 construct: purchased Millipore
In short: as §1

[6] = molecular target: T5, CaMKIδ (h) (Homo sapiens, UniProt Q8IU85)
T5 construct: purchased Millipore
In short: as §1

[7] = molecular target: Aurora-B (h) (Homo sapiens, UniProt Q96GD4)
In short: as §1

[8] = molecular target: T6, IGF-1R (h), activated (Homo sapiens, UniProt P08069)
T6 construct: purchased Millipore
In short: as §1

[9] = molecular target: T7, PDGFRα (h) (Homo sapiens, UniProt P16234)
T7 construct: purchased Millipore
In short: as §1

[10] = molecular target: T8, IKKβ (h) (Homo sapiens, UniProt O14920)
T8 construct: purchased Millipore
T8 sequence (O14920 1-756): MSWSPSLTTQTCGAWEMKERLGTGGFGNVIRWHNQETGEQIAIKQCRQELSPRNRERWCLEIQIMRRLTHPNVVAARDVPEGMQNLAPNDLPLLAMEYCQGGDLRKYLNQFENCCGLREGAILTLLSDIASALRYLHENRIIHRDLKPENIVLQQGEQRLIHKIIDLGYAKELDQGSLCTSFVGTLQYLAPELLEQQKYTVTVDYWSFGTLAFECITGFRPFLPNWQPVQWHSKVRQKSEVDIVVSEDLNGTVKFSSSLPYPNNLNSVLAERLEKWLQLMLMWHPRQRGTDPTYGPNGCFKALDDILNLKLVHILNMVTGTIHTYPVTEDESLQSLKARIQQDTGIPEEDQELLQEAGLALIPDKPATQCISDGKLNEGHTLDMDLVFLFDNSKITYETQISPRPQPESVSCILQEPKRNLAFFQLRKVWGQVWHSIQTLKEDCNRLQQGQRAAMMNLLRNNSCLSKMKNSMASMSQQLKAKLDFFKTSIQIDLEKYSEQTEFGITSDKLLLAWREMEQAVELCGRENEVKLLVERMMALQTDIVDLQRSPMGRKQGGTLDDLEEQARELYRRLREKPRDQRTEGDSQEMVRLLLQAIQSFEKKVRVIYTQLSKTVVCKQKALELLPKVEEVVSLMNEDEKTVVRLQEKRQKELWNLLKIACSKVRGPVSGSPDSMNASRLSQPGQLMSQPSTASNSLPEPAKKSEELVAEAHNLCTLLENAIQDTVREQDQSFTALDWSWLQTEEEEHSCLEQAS
In short: as §1

[11] = molecular target: Fms (h) (Homo sapiens, UniProt P07333)
In short: as §1

T7 sequence (P16234 24-1089): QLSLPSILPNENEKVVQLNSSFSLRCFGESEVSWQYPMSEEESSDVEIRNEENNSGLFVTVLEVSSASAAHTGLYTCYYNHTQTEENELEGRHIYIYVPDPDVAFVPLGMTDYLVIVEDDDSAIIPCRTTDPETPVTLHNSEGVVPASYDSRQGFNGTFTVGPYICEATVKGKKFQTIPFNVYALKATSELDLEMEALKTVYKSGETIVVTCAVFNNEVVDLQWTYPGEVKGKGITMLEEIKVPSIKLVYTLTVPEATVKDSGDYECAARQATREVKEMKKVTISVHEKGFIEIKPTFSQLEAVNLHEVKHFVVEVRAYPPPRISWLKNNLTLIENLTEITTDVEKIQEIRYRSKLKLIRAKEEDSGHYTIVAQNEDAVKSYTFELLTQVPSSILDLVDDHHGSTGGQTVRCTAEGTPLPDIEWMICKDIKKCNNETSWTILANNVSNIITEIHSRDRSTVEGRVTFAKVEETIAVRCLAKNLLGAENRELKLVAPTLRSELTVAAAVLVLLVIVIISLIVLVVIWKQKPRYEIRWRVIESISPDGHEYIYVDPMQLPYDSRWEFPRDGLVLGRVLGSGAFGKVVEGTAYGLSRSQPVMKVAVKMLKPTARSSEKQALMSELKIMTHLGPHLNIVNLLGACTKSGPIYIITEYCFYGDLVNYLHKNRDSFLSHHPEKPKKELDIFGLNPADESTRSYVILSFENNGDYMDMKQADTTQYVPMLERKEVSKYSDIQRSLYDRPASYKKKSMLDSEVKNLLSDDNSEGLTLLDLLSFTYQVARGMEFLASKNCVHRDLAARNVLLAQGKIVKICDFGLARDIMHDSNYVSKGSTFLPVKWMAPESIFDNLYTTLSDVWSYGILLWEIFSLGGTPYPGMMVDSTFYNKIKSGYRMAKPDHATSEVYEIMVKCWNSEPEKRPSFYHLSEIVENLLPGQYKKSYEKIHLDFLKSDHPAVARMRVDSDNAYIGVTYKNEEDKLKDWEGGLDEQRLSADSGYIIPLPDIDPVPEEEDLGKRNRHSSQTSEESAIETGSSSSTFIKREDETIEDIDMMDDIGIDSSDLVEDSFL
Sequence of Aurora-B (h) (Q96GD4 whole entry): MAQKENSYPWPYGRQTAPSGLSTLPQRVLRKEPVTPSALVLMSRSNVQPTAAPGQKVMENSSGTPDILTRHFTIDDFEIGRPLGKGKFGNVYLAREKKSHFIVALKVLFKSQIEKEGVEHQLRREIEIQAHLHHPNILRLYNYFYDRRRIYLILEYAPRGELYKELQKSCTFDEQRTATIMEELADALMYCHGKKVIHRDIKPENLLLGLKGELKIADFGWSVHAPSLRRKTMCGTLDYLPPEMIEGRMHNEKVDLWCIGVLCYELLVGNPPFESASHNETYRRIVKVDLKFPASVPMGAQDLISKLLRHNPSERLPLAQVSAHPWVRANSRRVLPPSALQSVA
T4 sequence (P08631 whole entry): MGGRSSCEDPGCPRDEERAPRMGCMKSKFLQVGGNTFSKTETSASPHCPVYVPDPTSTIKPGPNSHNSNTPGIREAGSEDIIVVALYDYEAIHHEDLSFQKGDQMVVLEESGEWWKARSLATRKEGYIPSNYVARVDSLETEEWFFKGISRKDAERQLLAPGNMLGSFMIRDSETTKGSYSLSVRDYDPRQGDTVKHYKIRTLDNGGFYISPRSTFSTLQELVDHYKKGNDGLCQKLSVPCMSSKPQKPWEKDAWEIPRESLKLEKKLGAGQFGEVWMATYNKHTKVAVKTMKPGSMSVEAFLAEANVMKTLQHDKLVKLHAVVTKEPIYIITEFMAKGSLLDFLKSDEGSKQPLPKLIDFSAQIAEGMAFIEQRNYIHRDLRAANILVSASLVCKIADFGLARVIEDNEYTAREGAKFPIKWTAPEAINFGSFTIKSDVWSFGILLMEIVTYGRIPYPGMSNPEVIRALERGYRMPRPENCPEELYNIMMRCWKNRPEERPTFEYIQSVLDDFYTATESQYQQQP
T5 sequence (Q8IU85 whole entry): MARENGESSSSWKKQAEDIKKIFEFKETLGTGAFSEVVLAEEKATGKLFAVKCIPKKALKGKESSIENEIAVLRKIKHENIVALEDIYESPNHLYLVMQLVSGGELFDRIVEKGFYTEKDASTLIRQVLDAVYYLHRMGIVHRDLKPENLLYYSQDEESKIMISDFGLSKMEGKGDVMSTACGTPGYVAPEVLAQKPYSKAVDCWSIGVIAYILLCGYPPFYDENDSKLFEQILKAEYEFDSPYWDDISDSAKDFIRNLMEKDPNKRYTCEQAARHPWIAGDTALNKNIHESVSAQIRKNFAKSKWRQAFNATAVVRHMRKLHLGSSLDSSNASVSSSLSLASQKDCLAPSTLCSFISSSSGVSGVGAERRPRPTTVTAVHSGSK
T6 sequence (P08069 959-1367 limits assumed): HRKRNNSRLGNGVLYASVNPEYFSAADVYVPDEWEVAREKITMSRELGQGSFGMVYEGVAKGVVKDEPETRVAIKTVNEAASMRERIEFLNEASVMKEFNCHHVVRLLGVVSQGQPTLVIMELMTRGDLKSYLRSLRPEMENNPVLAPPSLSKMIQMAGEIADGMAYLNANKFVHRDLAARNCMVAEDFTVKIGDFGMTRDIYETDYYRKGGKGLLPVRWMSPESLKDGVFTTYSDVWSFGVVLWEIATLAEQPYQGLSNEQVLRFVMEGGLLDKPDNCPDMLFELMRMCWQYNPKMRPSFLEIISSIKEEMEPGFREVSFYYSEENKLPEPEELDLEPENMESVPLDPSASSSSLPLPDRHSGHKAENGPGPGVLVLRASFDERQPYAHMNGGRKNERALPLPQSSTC
T2 sequence (O75676 whole entry): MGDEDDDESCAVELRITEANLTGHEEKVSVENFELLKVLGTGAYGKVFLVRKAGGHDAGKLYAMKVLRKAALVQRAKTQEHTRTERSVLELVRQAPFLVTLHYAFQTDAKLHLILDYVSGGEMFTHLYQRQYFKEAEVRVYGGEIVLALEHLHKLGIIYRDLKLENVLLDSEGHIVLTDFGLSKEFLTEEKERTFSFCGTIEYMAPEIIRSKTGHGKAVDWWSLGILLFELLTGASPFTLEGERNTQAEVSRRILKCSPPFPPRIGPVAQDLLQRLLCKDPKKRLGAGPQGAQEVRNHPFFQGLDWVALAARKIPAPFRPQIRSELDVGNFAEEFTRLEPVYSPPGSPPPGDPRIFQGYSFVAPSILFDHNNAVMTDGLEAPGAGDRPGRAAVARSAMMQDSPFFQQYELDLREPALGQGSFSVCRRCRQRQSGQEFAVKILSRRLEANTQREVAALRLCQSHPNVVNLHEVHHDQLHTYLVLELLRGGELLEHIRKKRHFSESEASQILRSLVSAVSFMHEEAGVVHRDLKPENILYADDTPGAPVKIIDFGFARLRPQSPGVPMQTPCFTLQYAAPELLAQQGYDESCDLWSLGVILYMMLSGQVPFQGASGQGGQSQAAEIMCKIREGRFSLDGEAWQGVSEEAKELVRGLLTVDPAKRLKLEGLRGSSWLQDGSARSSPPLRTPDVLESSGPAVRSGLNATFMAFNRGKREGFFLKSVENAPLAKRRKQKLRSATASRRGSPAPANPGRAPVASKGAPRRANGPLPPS

| Sequence | % activity [1] [%] | % activity [2] [%] | % activity [3] [%] | % activity [4] [%] | % activity [5] [%] | % activity [6] [%] | % activity [7] [%] | % activity [8] [%] | % activity [9] [%] | % activity [10] [%] | % activity [11] [%] |
| --- | --- | --- | --- | --- | --- | --- | --- | --- | --- | --- | --- |
| FAKLAARLYRKALARQLGVAA [MMI-0300] | 33 | 79 | 56 | 80 | 82 | 10 | 128 | 80 | 65 | 84 | 45 |
| HRRIKAWLKKIKALARQLGVAA (Mammalian) [MMI-0500] | 10 | 20 | 14 | 37 | 67 | 0 | 5 | 45 | 40 | 71 | 14 |
| KAFAKLAARLYRKALARQLGVAA [MMI-0400] | 25 | 73 | 52 | 80 | 81 | 17 | 150 | 77 | 40 | 84 | 37 |
| YARAAARQARAKALNRQLGVA (Mammalian) [MMI-0200] | 78 | 100 | 88 | 94 | 100 | 47 | 166 | 94 | 108 |  | 92 |
